The results in this text go back to the DeepSol protein solubility set.

This data set can be described thus: soluble on expression in E. coli; label from the status in PepcDB or PDB records.
With “MLGDGLSVALAGLLHDVGKLYSRARWGERDDQVPDRTHTAYTAHFVREHAGLFRGAGLDPDWLARTASRHHEGWRDRPQYRPETPEEWCVALADTYASKEREEGEGGGSPPEVPLSPPFRRLLLGGEEGREGGYSPVGAGGRVGLEAGGLYPEERPNVSKDVYKRLLERLEGRLEEMARFSLGKEALVLNLALALQETLSLVPSDTQSEPDVSLYDHLRLTAAIAHALWLFHGGSPSAQNLRQDGEKFLLVVGDMGGIQGHIYRIAGAEAGVGGIAKRLRARSLEVSLAAEAMALGLLWRLGLTSLNRILGAGGKFYLLLPNTEEARAALEGTREAWGRWALKRGGSLVPHLAWVAFRGQDFRDFAALLKRLHEALAREKLRPFAFLASTGGVLGAPLRPCAACGLEPARRDEPGSLCPDCEREAALGARLPRSDRVGFFLEEAPRPYLDFPGLKVGLGGPLEGAFHLFRARLDFAPWPDPSEAKPLLGHLPRVEHALKAKGWSLEAYRAWAEEEGLLEDEEPHPEKVLTFAELAALSEGAPYLGALMLDADRMGEAFATGFRREGRDLATPSRLAALSRTLEVFFTTEVLTLLEEPRRYRERLGWDDLEAQRKEARYPLLYSVYSGGDDLFLLGPWDALLDFALDLERLYRLFTRHPRLTLSGGFLLVPPSLPVPELARLLGEAEKRAKAEGRERLFLFGQAVPWETLRGLRAWAEGLRQDLRAERVSRAQVYRWLLLWRRFSPLEDPGERMRYKPLLAYALRRVRERDEEAWKRYLKLLDHQDPAWAYLPVWVQWALYRERRV”, the “soluble on expression in E. coli” value is reported as “soluble”.
Under “PPPAPIPDLKVFEREGVQLNLSFIRPPENPALLLITITATNFSEGDVTHFICQAAVPKSLQLQLQAPSGNTVPARGGLPITQLFRILNPNKAPLRLKLRLTYDHFHQSVQEIFEVNNLPVESWQ” stands “soluble”.
Under “SSEADQALVGPKADEPSPPAEEKDEGGGKEAAADAAPGPSASFRLMVTRREPAVKLQYAVSGLEPLSWSEDHRVSVSTARSVAVLELICDVHNPGQDLVIHRTSVPAPLNSCLLKVGSKTEVAECKEKFASSKDPTISQTFMLDRMFNPEGKALPPMRGFKYTSWSPMGCDANGRCLLAALTMDNRLTVQVNLNRLQWVQLVDLTEIYGDRLYETSYRLSKNEAPEGNLGDFAEFQRRHSMQTPVRMEWSSICTTQQVKHNNECRDVSS” stands “soluble”; under “MVKNQFPLVADGIAISDPAKQMALYENEDLITNIRGYYQDKEYDDIARNEEFTAKATSRQTPSSKRFCSNDEKHHYVKEARQKAKQDLKEKRQAYLAKEMAYVPKQVSKKQQPADSSPSQKQATTEMSRFTKKLHQDNYILAELPKEYKEPKNLPQQGTTKKNNYDFLKSSQIYNNKEMRQQREKTIAQELNLSRFEDLP”, “not soluble”.
“MSLGEHILLNQTLSDVIHYFKSQRCGGVFDQQDRQVPVLNANQTVDVHGGWYDASGDVSKYLSHLSYANYLNPQQTPMVVWNILKGLSLLEGSEDIAAFTRTRLIEEALFGADFLVRMQNEKGFFYMTVFDKWSKDTAQREICAYETQLGHKFDDYQAGFRQGGGVAIAALAAASRLGVHGEYDQQKYRNAAENGYWHLKEHNTQYLNDGEENIIDEYCALLASVELFKATKETRYLEESRLWAQRLVARQMSDEQIQHFWSANQDGSRPYFHAAEAGLPGIALCEYLAIEDDSVQTESVKCIVNRACEFEIKISNKVTNPFGYPRQYVKGVNESKRDAFFVAHNNESGYWWQGENARLGSLATMAYLAQPHIASQEIQQQLSVFAQDALNWIVGLNPYDMCMLDGHGRNNPDYLPQYGFFNAKGGVCNGITGGFEDEEDIAFNPPAQKDDMLQNWRWGEQWIPHGAWYLLAIMSQAQHISQLATSKNIKEGHHHHHH”: the “soluble on expression in E. coli” value is reported as “not soluble”.
As for “MAIYYNGLKIESNEEVYEPAEDTFLLAESLLDEVKSDDIVLDVGTGTGILALLAARRARFVVGLDINEKAINLAWKNAKINGIKNVVFILSDLFENIRGTFDLIVFNPPYLPGEEIKDKVDLALIGGKTGGEVISRFLGSVKDYLSSRGRILLIYSSLTGLDVEKAFKERGFSTSIVKRRRFFFEELYVMKAELSSRL”, the entry is “soluble”.
